# In patent US20040091468, “Novel transcriptional mediators of blood vessel development and endothelial differentiation” (published 2004):
# T1: cELF-1 (Gallus gallus)
# T1 chain: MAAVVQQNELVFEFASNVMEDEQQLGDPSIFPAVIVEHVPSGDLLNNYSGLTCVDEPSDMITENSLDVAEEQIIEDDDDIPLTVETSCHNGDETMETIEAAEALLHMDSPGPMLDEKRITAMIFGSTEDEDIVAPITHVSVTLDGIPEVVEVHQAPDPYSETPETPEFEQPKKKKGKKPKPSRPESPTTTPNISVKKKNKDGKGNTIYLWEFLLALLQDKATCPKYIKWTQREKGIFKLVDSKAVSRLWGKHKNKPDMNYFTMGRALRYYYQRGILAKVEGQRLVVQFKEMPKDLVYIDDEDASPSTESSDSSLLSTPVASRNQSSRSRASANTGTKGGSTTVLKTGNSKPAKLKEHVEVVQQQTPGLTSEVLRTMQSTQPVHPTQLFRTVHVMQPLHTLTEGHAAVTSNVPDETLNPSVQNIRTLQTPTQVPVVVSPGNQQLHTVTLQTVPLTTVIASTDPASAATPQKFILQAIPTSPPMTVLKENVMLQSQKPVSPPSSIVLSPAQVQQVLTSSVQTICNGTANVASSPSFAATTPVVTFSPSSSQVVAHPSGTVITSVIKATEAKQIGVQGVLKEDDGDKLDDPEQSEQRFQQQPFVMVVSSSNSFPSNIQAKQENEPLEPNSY
# B1: Tie1 P1 (dsDNA)
# DNA 1: ACTGGCTTCCTCCCTTTCCTGTCTC
# DNA 2: GAGACAGGAAAGGGAGGAAGCCAGT
# B2: Tie1 P2 (dsDNA)
# DNA 1: CCATCATTTCCTCTTCCTCCCCAG
# DNA 2: CTGGGGAGGAAGAGGAAATGATGG
# B3: Tie1 P2 Mut1,2 (dsDNA)
# DNA 1: CCATCATTTAATCTTAATCCCCAG
# DNA 2: CTGGGGATTAAGATTAAATGATGG
# B4: Tie1 P2 Mut2 (dsDNA)
# DNA 1: CCATCATTTCCTCTTAATCCCCAG
# DNA 2: CTGGGGATTAAGAGGAAATGATGG
# B5: Tie2 promoter Ets oligonucleotide (dsDNA)
# DNA 1: TGCAAAGGAAACAGGAAAAAGGAACTTAAC
# DNA 2: GTTAAGTTCCTTTTTCCTGTTTCCTTTGCA
# Assays:
# cELF-1 [1] = target: T1, cELF-1; assay: EMSA; binds well; room temperature; settings: tags: none (TNT reticulocyte lysate); label: 32P
# Method: (§1) The ability of cELF-1 to bind to conserved Ets sites in the Tie1 promoter was examined. There are two Ets site doublets, P1 and P2 that are highly conserved in this promoter. The ability of cELF-1 to bind to these Ets sites was tested. As is shown in FIG. 8C, cELF-1 binds well to both of these Ets sites. […] When both of the Ets site were mutated (Mut 1,2) the oligonucleotides were unable to compete for binding. When the first Ets site was mutated, Mut 1, it competed only weakly with binding of cELF-1 to the Tie1 P2 probe.
# (§2) Briefly, 20-μL samples containing 2 μL of in vitro-translated products or cell extracts were incubated with a solution containing ³²P-labeleddouble-stranded probes (30 000 cpm). Samples were incubated in the presence or absence of increasing amounts of cold competitor (5 or 50 ng) for 15 to 20 minutes at room temperature and run on a 4% polyacrylamide gel (acrylamide-bisacrylamide, 29:1) containing a buffer of 0.25×TBE (22.5 mmol/L Tris borate and 0.5 mmol/L EDTA).
# cELF-1 [2] = target: T1, cELF-1; assay: EMSA; binds well; wild type cold oligo competes; settings: tags: none (TNT reticulocyte lysate); label: 32P
# Method: as §1, §2
# cELF-1 [3] = target: T1, cELF-1; assay: competition; 5 or 50 ng cold competitor vs Tie1 P2 probe; unable to compete; settings: tags: none (TNT reticulocyte lysate)
# Method: as §1, §2
# cELF-1 [4] = target: T1, cELF-1; assay: competition; 5 or 50 ng cold competitor vs Tie1 P2 probe; competes as well as wild type; settings: tags: none (TNT reticulocyte lysate)
# Method: as §1, §2
# cELF-1 [5] = target: T1, cELF-1; assay: EMSA; anti-ELF-1 antibody interferes and supershifts; room temperature; settings: tags: none (TNT reticulocyte lysate); label: 32P
# Method: The ability of in vitro translated human ELF-1 and cELF-1 to bind to the same Tie2 Ets sites was also examined. As is shown in FIG. 8A, both human and chicken ELF-1 form similar DNA-protein complexes with the Tie2 Ets sites (lane 2 and 3). The ability of an ELF-1 specific antibody to interfere with the formation of these complexes was also tested. This antibody was able to interfere with complex formation of both human and chicken ELF-1. […] Because several Ets factors may potentially bind to the Tie2 Ets site in vivo in the developing chicken we performed gel shift assays with the Tie2 Ets probe and cell extracts from the chicken CAM. As is shown in FIG. 8B, lane 3, a similar size complex is formed compared to the in vitro translated cELF-1.
# as §2
binder,measurement,setting,value
B1,binding result,cELF-1 [1],binds
B2,binding result,cELF-1 [2],binds
B3,binding result,cELF-1 [3],no binding
B4,binding result,cELF-1 [4],binds
B5,binding result,cELF-1 [5],binds
